From patent US20150344570A1 (published 2015)

Biological target: T1, FcγRIIa H (FcγRIIa type H, His at position 131), extracellular domain with C-terminal His tag (human, UniProt P12318 34-217)
T1 construct: extracellular domain; also called FcgRIIa H; 2aH
T1 sequence (looked up): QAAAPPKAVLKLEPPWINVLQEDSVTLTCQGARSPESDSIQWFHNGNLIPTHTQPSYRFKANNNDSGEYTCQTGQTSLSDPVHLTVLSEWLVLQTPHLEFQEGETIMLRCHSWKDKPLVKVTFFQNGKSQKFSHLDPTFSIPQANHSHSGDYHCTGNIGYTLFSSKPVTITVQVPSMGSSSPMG
Assay: SPR Biacore, relative binding, GpH7-B3/GpL16-k0 (HoCon Ab)=100
Experimental: Analysis of interaction between objective antibody and the FcγR was carried out using Biacore T100 (GE Healthcare). HBS-EP+ (GE Healthcare) was used as the running buffer, and the measurement temperature was set to 25° C. Chips produced by immobilizing the antigen peptide by the amine coupling method to a Series S Sencor Chip CM5 (GE Healthcare), or alternatively, chips produced by allowing preliminarily biotinylated antigen peptides to interact with and immobilize onto a Series S Sensor Chip SA (certified) (GE Healthcare) were used. Antibodies of interest were captured onto an antigen peptide-immobilized chip, and allowed to interact to each FcγR diluted with running buffer. To regenerate and repeatedly use the chip, the antibodies captured on the chip were washed off by reacting 10 mM glycine-HCl, pH 1.5.

B1: GpH7-B3 variant H268_09D/GpL16-k0 (antibody, human IgG1, kappa)
heavy: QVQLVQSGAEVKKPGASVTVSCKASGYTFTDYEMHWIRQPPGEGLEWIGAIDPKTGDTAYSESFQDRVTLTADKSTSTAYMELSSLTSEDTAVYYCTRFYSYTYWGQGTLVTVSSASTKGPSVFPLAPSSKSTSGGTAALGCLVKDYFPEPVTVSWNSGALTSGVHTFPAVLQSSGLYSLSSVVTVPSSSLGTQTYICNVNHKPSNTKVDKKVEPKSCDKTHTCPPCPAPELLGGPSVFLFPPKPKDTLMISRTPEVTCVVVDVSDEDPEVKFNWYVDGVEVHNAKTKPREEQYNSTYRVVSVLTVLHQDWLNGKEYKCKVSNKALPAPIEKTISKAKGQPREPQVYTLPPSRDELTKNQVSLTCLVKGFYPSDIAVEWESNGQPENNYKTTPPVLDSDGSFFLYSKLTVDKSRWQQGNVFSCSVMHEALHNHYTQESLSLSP
light: DIVMTQSPLSLPVTPGEPASISCQASESLVHSNRNTYLHWYLQKPGQSPQLLIYKVSNRFSGVPDRFSGSGSGTDFTLKISRVEAEDVGVYYCSQNTHVPPTFGQGTKVEIERTVAAPSVFIFPPSDEQLKSGTASVVCLLNNFYPREAKVQWKVDNALQSGNSQESVTEQDSKDSTYSLSSTLTLSKADYEKHKVYACEVTHQGLSSPVTKSFNRGEC
notes: both H chains mutated; also called Ho Ab
- Ho/Con_2aH: 136 % of control

B2: GpH7-B3 variant S324_20W/GpL16-k0 (antibody, human IgG1, kappa)
heavy: not shown
light: B1 light
notes: as for B1
- Ho/Con_2aH: 108 % of control

B3: GpH7-B3 variant I336_06M/GpL16-k0 (antibody, human IgG1, kappa)
heavy: not shown
light: B1 light
notes: as for B1
- Ho/Con_2aH: 100 % of control

B4: GpH7-B3 variant I332_15Y/GpL16-k0 (antibody, human IgG1, kappa)
heavy: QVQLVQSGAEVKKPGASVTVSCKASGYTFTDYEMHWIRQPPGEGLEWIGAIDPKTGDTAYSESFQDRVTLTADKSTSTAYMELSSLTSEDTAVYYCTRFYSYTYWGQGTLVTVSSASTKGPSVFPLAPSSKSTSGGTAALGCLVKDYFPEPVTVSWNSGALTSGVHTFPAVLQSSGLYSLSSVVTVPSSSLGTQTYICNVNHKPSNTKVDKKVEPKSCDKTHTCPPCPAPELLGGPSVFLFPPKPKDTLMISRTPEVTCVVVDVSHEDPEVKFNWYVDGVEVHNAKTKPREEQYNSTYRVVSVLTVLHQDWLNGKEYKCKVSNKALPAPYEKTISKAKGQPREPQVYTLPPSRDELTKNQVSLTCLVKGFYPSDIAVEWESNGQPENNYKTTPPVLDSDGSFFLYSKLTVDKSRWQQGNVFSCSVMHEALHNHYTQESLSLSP
light: B1 light
notes: as for B1
- Ho/Con_2aH: 126 % of control

B5: GpH7-B3 variant H268_18N/GpL16-k0 (antibody, human IgG1, kappa)
heavy: not shown
light: B1 light
notes: as for B1
- Ho/Con_2aH: 110 % of control

B6: GpH7-B3 variant K334_08L/GpL16-k0 (antibody, human IgG1, kappa)
heavy: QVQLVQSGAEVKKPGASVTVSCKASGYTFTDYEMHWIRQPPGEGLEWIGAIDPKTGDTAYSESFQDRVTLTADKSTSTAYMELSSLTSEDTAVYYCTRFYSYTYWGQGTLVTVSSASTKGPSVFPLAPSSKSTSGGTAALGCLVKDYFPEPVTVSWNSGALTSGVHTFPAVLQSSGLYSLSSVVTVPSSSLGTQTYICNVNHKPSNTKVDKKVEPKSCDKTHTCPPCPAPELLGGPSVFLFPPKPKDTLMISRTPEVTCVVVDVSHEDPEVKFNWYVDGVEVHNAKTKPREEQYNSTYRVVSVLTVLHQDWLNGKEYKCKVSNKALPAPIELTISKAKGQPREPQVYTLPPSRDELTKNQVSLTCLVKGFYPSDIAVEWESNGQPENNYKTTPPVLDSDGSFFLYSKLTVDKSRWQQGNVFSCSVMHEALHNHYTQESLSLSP
light: B1 light
notes: as for B1
- Ho/Con_2aH: 103 % of control

B7: GpH7-B3 variant T335_13S/GpL16-k0 (antibody, human IgG1, kappa)
heavy: not shown
light: B1 light
notes: as for B1
- Ho/Con_2aH: 101 % of control

B8: GpH7-B3 variant H268_13S/GpL16-k0 (antibody, human IgG1, kappa)
heavy: not shown
light: B1 light
notes: as for B1
- Ho/Con_2aH: 114 % of control

B9: GpH7-B3 variant K326_14T/GpL16-k0 (antibody, human IgG1, kappa)
heavy: not shown
light: B1 light
notes: as for B1
- Ho/Con_2aH: 118 % of control

B10: GpH7-B3 variant I332_14T/GpL16-k0 (antibody, human IgG1, kappa)
heavy: not shown
light: B1 light
notes: as for B1
- Ho/Con_2aH: 125 % of control

B11: GpH7-B3 variant H268_10E/GpL16-k0 (antibody, human IgG1, kappa)
heavy: not shown
light: B1 light
notes: as for B1
- Ho/Con_2aH: 126 % of control

B12: GpH7-B3 variant S337_09D/GpL16-k0 (antibody, human IgG1, kappa)
heavy: not shown
light: B1 light
notes: as for B1
- Ho/Con_2aH: 107 % of control

B13: GpH7-B3 variant I332_06M/GpL16-k0 (antibody, human IgG1, kappa)
heavy: not shown
light: B1 light
notes: as for B1
- Ho/Con_2aH: 114 % of control

B14: GpH7-B3 variant K334_16H/GpL16-k0 (antibody, human IgG1, kappa)
heavy: not shown
light: B1 light
notes: as for B1
- Ho/Con_2aH: 101 % of control

B15: GpH7-B3 variant S324_09D/GpL16-k0 (antibody, human IgG1, kappa)
heavy: not shown
light: B1 light
notes: as for B1
- Ho/Con_2aH: 113 % of control

B16: GpH7-B3 variant K334_14T/GpL16-k0 (antibody, human IgG1, kappa)
heavy: not shown
light: B1 light
notes: as for B1
- Ho/Con_2aH: 105 % of control

B17: GpH7-B3 variant K334_07[ (read as K334_07I)/GpL16-k0 (antibody, human IgG1, kappa)
heavy: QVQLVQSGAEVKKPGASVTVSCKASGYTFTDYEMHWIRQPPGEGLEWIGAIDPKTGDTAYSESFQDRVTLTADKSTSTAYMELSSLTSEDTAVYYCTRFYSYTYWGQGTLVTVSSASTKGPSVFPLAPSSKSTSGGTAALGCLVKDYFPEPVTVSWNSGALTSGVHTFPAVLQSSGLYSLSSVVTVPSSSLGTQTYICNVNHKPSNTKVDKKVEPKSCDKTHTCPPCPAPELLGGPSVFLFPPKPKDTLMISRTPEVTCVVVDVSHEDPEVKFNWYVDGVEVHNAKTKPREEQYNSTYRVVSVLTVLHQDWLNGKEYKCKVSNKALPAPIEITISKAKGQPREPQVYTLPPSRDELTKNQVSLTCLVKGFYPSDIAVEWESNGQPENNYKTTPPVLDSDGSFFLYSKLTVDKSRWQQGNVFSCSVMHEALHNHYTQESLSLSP
light: B1 light
notes: as for B1
- Ho/Con_2aH: 116 % of control

B18: GpH7-B3 variant L235_20W/GpL16-k0 (antibody, human IgG1, kappa)
heavy: not shown
light: B1 light
notes: as for B1
- Ho/Con_2aH: 112 % of control

B19: GpH7-B3 variant I332_03V/GpL16-k0 (antibody, human IgG1, kappa)
heavy: not shown
light: B1 light
notes: as for B1
- Ho/Con_2aH: 106 % of control

B20: GpH7-B3 variant I332_09D/GpL16-k0 (antibody, human IgG1, kappa)
heavy: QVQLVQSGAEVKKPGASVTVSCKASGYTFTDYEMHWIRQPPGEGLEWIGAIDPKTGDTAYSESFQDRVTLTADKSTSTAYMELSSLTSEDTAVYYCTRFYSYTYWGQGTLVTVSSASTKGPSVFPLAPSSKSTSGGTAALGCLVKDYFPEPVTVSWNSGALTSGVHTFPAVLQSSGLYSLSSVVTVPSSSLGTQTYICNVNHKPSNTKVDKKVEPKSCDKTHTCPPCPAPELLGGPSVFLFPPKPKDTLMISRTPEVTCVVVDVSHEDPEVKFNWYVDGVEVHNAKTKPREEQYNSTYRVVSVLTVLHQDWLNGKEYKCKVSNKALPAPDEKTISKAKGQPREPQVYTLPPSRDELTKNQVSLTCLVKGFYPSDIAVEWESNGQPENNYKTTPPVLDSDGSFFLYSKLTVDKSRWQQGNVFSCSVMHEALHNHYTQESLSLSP
light: B1 light
notes: as for B1
- Ho/Con_2aH: 130 % of control

B21: GpH7-B3 variant K326_10E/GpL16-k0 (antibody, human IgG1, kappa)
heavy: not shown
light: B1 light
notes: as for B1
- Ho/Con_2aH: 101 % of control

B22: GpH7-B3 variant S324_02A/GpL16-k0 (antibody, human IgG1, kappa)
heavy: not shown
light: B1 light
notes: as for B1
- Ho/Con_2aH: 102 % of control

B23: GpH7-B3 variant S337_14T/GpL16-k0 (antibody, human IgG1, kappa)
heavy: not shown
light: B1 light
notes: as for B1
- Ho/Con_2aH: 105 % of control

B24: GpH7-B3 variant K326_06M/GpL16-k0 (antibody, human IgG1, kappa)
heavy: not shown
light: B1 light
notes: as for B1
- Ho/Con_2aH: 101 % of control

B25: GpH7-B3 variant S337_10E/GpL16-k0 (antibody, human IgG1, kappa)
heavy: not shown
light: B1 light
notes: as for B1
- Ho/Con_2aH: 101 % of control

B26: GpH7-B3 variant K334_04F/GpL16-k0 (antibody, human IgG1, kappa)
heavy: not shown
light: B1 light
notes: as for B1
- Ho/Con_2aH: 103 % of control

B27: GpH7-B3 variant I332_04F/GpL16-k0 (antibody, human IgG1, kappa)
heavy: not shown
light: B1 light
notes: as for B1
- Ho/Con_2aH: 111 % of control

B28: GpH7-B3 variant I332_10E/GpL16-k0 (antibody, human IgG1, kappa)
heavy: not shown
light: B1 light
notes: as for B1
- Ho/Con_2aH: 117 % of control

B29: GpH7-B3 variant L328_06M/GpL16-k0 (antibody, human IgG1, kappa)
heavy: not shown
light: B1 light
notes: as for B1
- Ho/Con_2aH: 100 % of control

B30: GpH7-B3 variant T335_19Q/GpL16-k0 (antibody, human IgG1, kappa)
heavy: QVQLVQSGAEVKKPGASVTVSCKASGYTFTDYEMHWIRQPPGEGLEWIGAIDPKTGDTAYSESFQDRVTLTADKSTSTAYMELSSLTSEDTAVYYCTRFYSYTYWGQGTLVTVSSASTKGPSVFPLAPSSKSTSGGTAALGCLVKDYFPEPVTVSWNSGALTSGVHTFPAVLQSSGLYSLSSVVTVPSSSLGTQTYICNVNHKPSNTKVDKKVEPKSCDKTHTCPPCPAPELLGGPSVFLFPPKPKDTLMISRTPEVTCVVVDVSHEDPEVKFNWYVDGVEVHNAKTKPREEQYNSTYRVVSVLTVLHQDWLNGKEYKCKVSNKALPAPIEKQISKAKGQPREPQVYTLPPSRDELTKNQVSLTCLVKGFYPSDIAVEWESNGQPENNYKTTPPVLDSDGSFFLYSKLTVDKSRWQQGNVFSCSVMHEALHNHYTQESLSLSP
light: B1 light
notes: as for B1
- Ho/Con_2aH: 103 % of control

B31: GpH7-B3 variant Q295_05P/GpL16-k0 (antibody, human IgG1, kappa)
heavy: not shown
light: B1 light
notes: as for B1
- Ho/Con_2aH: 106 % of control

B32: GpH7-B3 variant L328_13S/GpL16-k0 (antibody, human IgG1, kappa)
heavy: not shown
light: B1 light
notes: as for B1
- Ho/Con_2aH: 131 % of control

B33: GpH7-B3 variant I332_19Q/GpL16-k0 (antibody, human IgG1, kappa)
heavy: not shown
light: B1 light
notes: as for B1
- Ho/Con_2aH: 114 % of control

B34: GpH7-B3 variant T335_15Y/GpL16-k0 (antibody, human IgG1, kappa)
heavy: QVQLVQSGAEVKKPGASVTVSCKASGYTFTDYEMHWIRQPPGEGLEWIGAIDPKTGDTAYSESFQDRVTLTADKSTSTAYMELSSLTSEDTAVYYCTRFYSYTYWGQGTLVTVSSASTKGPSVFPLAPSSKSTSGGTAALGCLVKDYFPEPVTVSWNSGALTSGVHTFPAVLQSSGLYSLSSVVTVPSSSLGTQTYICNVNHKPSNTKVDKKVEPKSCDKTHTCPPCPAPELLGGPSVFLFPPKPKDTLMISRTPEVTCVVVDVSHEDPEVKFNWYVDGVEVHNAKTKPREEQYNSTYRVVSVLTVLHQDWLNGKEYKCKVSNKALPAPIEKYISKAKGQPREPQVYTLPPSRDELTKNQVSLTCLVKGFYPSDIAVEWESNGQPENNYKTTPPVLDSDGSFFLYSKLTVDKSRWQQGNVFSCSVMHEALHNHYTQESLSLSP
light: B1 light
notes: as for B1
- Ho/Con_2aH: 102 % of control

B35: GpH7-B3 variant K326_19Q/GpL16-k0 (antibody, human IgG1, kappa)
heavy: not shown
light: B1 light
notes: as for B1
- Ho/Con_2aH: 100 % of control

B36: GpH7-B3 variant S267_02A/GpL16-k0 (antibody, human IgG1, kappa)
heavy: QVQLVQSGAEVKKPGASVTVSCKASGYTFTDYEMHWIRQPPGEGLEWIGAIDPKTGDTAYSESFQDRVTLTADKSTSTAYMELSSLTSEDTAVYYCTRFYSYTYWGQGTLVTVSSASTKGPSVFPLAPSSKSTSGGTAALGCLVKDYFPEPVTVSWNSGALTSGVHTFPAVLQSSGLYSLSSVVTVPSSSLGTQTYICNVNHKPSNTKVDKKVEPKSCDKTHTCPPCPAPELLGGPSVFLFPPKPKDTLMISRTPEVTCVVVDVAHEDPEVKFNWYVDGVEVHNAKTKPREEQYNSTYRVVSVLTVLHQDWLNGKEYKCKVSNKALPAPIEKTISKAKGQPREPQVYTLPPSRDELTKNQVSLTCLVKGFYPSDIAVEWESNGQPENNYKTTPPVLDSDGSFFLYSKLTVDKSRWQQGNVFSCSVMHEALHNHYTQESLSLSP
light: B1 light
notes: as for B1
- Ho/Con_2aH: 120 % of control

B37: GpH7-B3 variant T335_07I/GpL16-k0 (antibody, human IgG1, kappa)
heavy: not shown
light: B1 light
notes: as for B1
- Ho/Con_2aH: 105 % of control

B38: GpH7-B3 variant L328_14T/GpL16-k0 (antibody, human IgG1, kappa)
heavy: not shown
light: B1 light
notes: as for B1
- Ho/Con_2aH: 110 % of control

B39: GpH7-B3 variant S239_09D/GpL16-k0 (antibody, human IgG1, kappa)
heavy: not shown
light: B1 light
notes: as for B1
- Ho/Con_2aH: 112 % of control

B40: GpH7-B3 variant S324_06M/GpL16-k0 (antibody, human IgG1, kappa)
heavy: not shown
light: B1 light
notes: as for B1
- Ho/Con_2aH: 123 % of control

B41: GpH7-B3 variant S337_16H/GpL16-k0 (antibody, human IgG1, kappa)
heavy: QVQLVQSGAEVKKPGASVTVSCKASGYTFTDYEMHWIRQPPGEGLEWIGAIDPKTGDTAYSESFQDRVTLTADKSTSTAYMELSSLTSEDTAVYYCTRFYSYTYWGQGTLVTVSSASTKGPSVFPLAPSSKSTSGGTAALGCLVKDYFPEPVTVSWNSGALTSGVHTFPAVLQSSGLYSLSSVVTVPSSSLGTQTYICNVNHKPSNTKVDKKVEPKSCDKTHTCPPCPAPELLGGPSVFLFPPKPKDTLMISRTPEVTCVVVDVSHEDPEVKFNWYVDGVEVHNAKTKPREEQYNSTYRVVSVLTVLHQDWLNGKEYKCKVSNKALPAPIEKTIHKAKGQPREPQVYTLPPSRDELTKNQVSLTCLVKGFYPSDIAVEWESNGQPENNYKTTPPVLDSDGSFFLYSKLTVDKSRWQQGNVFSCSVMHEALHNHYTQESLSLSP
light: B1 light
notes: as for B1
- Ho/Con_2aH: 102 % of control

B42: GpH7-B3 variant I332_13S/GpL16-k0 (antibody, human IgG1, kappa)
heavy: not shown
light: B1 light
notes: as for B1
- Ho/Con_2aH: 121 % of control

B43: GpH7-B3 variant K326_09D/GpL16-k0 (antibody, human IgG1, kappa)
heavy: not shown
light: B1 light
notes: as for B1
- Ho/Con_2aH: 113 % of control

B44: GpH7-B3 variant S324_10E/GpL16-k0 (antibody, human IgG1, kappa)
heavy: not shown
light: B1 light
notes: as for B1
- Ho/Con_2aH: 104 % of control

B45: GpH7-B3 variant P271_01G/GpL16-k0 (antibody, human IgG1, kappa)
heavy: not shown
light: B1 light
notes: as for B1
- Ho/Con_2aH: 110 % of control

B46: GpH7-B3 variant T335_16H/GpL16-k0 (antibody, human IgG1, kappa)
heavy: not shown
light: B1 light
notes: as for B1
- Ho/Con_2aH: 100 % of control

B47: GpH7-B3 variant T335_10E/GpL16-k0 (antibody, human IgG1, kappa)
heavy: not shown
light: B1 light
notes: as for B1
- Ho/Con_2aH: 105 % of control

B48: GpH7-B3 variant I336_08L/GpL16-k0 (antibody, human IgG1, kappa)
heavy: not shown
light: B1 light
notes: as for B1
- Ho/Con_2aH: 101 % of control

B49: GpH7-B3 variant T335_01G/GpL16-k0 (antibody, human IgG1, kappa)
heavy: not shown
light: B1 light
notes: as for B1
- Ho/Con_2aH: 101 % of control

B50: GpH7-B3 variant Q295_07I/GpL16-k0 (antibody, human IgG1, kappa)
heavy: not shown
light: B1 light
notes: as for B1
- Ho/Con_2aH: 108 % of control

B51: GpH7-B3 variant L328_02A/GpL16-k0 (antibody, human IgG1, kappa)
heavy: not shown
light: B1 light
notes: as for B1
- Ho/Con_2aH: 134 % of control

B52: GpH7-B3 variant I332_16H/GpL16-k0 (antibody, human IgG1, kappa)
heavy: not shown
light: B1 light
notes: as for B1
- Ho/Con_2aH: 119 % of control

B53: GpH7-B3 variant K334_03V/GpL16-k0 (antibody, human IgG1, kappa)
heavy: not shown
light: B1 light
notes: as for B1
- Ho/Con_2aH: 111 % of control

B54: GpH7-B3 variant I332_18N/GpL16-k0 (antibody, human IgG1, kappa)
heavy: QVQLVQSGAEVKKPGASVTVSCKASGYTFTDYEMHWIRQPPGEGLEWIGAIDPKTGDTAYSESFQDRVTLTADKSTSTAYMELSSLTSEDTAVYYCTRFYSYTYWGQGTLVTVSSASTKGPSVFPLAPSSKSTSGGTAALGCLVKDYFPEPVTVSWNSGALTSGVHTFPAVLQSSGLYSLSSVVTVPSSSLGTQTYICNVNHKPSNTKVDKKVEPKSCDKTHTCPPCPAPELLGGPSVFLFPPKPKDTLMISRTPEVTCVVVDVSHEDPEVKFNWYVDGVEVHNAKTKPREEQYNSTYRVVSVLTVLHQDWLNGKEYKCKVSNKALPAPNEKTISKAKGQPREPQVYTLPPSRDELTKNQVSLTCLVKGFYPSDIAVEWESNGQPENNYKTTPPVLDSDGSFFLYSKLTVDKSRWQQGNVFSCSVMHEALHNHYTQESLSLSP
light: B1 light
notes: as for B1
- Ho/Con_2aH: 118 % of control

B55: GpH7-B3 variant K334_15Y/GpL16-k0 (antibody, human IgG1, kappa)
heavy: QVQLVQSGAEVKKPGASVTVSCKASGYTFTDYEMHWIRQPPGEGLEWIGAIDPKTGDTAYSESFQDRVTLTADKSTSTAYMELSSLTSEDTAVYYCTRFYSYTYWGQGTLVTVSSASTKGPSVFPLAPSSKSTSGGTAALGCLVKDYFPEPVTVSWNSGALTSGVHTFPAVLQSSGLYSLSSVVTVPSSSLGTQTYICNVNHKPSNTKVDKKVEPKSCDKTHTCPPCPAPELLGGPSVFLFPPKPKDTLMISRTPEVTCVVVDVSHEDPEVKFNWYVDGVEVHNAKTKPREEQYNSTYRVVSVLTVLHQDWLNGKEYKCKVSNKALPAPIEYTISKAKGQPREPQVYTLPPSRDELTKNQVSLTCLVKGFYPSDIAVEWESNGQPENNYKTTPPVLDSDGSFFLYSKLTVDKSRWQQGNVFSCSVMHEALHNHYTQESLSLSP
light: B1 light
notes: as for B1
- Ho/Con_2aH: 110 % of control
